Assay results as given in patent US20220177531A1 (NEW YORK UNIVERSITY, published 2022).

Legend:
[1] = target: KRAS(G12V) in cells (endogenous in PATU8902 and H441) (UniProt P01116-2 1-185, limits assumed)
KRAS(G13D), GDP-bound = target: T1, KRAS(G13D), GDP-bound (Meleagris gallopavo (Wild turkey), UniProt P79800 1-174, GDP bound non-covalently; biotin on the N-terminal Avi-tag, and the tag is not in the letters); experiment: yeast display titration, flow cytometry
T1 construct: Same protein as m19, loaded with GDP

KRAS(G12D), GDP-bound = target: T2, KRAS(G12D), GDP-bound (Meleagris gallopavo (Wild turkey), UniProt P79800 1-174, GDP bound non-covalently; biotin on the N-terminal Avi-tag, and the tag is not in the letters); experiment: yeast display titration, flow cytometry
T2 construct: Same protein as m17, loaded with GDP

KRAS(G12D), GTPγS-bound = target: T3, KRAS(G12D), GTPγS-bound (Meleagris gallopavo (Wild turkey), UniProt P79800 1-174, GTPγS bound non-covalently; biotin on the N-terminal Avi-tag, and the tag is not in the letters); experiment: yeast display titration, flow cytometry
T3 construct: Loaded with GTPγS; tagged and biotinylated in the yeast-display assay

KRAS(G13D), GTPγS-bound = target: T4, KRAS(G13D), GTPγS-bound (Meleagris gallopavo (Wild turkey), UniProt P79800 1-174, GTPγS bound non-covalently; biotin on the N-terminal Avi-tag, and the tag is not in the letters); experiment: yeast display titration, flow cytometry
T4 construct: Loaded with GTPγS; tagged and biotinylated in the yeast-display assay

B1: Monobody 12VC1 (designed binder)
chain: VSSVPTKLEVVAATPTSLLISWDAPAVTVFFYVITYGETGHGVGAFQAFKVPGSKSTATISGLKPGVDYTITVYARGYSKQGPYKPSPISINYRT
With B1 the FoldChange [1] was 1360, the binding result (KRAS(G13D), GDP-bound) was “no binding (tested: 100 nM)” and the binding result (KRAS(G12D), GDP-bound) was “no binding (tested: 100 nM)”. B1: no binding (tested: 100 nM) (KRAS(G12D), GTPγS-bound); no binding (tested: 100 nM) (KRAS(G13D), GTPγS-bound).
